Data reported in patent US11390660B2, “Uterine cancer treatments” (Immatics Biotechnologies GmbH, priority 2016, dated 2022).

Tested on: CD8+ T cells
Experiment: In vitro T-cell priming assay with aAPCs loaded with peptide/MHC complexes and anti-CD28 antibody, pMHC multimer readout
Type: cell-based, human
Conditions: in vitro immunogenicity, HLA-A*02 restricted peptides, positive wells among evaluable (Table 10B)
Excerpt: In order to obtain information regarding the immunogenicity of the TUMAPs of the present invention, the inventors performed investigations using an in vitro T-cell priming assay based on repeated stimulations of CD8+ T cells with artificial antigen presenting cells (aAPCs) loaded with peptide/MHC complexes and anti-CD28 antibody.
In order to perform in vitro stimulations by artificial antigen presenting cells loaded with peptide-MHC complex (pMHC) and anti-CD28 antibody, the inventors first isolated CD8+ T cells from fresh HLA-A*02 leukapheresis products via positive selection using CD8 microbeads (Miltenyi Biotec, Bergisch-Gladbach, Germany) of healthy donors obtained from the University clinics Mannheim, Germany, after informed consent.
PBMCs and isolated CD8+ lymphocytes were incubated in T-cell medium (TCM) until use consisting of RPMI-Glutamax (Invitrogen, Karlsruhe, Germany) supplemented with 10% heat inactivated human AB serum (PAN-Biotech, Aidenbach, Germany), 100 U/ml Penicillin/100 μg/ml Streptomycin (Cambrex, Cologne, Germany), 1 mM sodium pyruvate (CC Pro, Oberdorla, Germany), 20 μg/ml Gentamycin (Cambrex). 2.5 ng/ml IL-7 (PromoCell, Heidelberg, Germany) and 10 U/ml IL-2 (Novartis Pharma, Nürnberg, Germany) were also added to the TCM at this step.
Generation of pMHC/anti-CD28 coated beads, T-cell stimulations and readout was performed in a highly defined in vitro system using four different pMHC molecules per stimulation condition and 8 different pMHC molecules per readout condition.
The purified co-stimulatory mouse IgG2a anti human CD28 Ab 9.3 (Jung et al., 1987) was chemically biotinylated using Sulfo-N-hydroxysuccinimidobiotin as recommended by the manufacturer (Perbio, Bonn, Germany). Beads used were 5.6 μm diameter streptavidin coated polystyrene particles (Bangs Laboratories, Illinois, USA).
800.000 beads/200 μI were coated in 96-well plates in the presence of 4×12.5 ng different biotin-pMHC, washed and 600 ng biotin anti-CD28 were added subsequently in a volume of 200 μI. Stimulations were initiated in 96-well plates by co-incubating 1×10^6 CD8+ T cells with 2×10^5 washed coated beads in 200 μI TCM supplemented with 5 ng/ml IL-12 (PromoCell) for 3 days at 37° C. Half of the medium was then exchanged by fresh TCM supplemented with 80 U/ml IL-2 and incubating was continued for 4 days at 37° C. This stimulation cycle was performed for a total of three times. For the pMHC multimer readout using 8 different pMHC molecules per condition, a two-dimensional combinatorial coding approach was used as previously described (Andersen et al., 2012) with minor modifications encompassing coupling to 5 different fluorochromes. Finally, multimeric analyses were performed by staining the cells with Live/dead near IR dye (Invitrogen, Karlsruhe, Germany), CD8-FITC antibody clone SK1 (BD, Heidelberg, Germany) and fluorescent pMHC multimers. For analysis, a BD LSRII SORP cytometer equipped with appropriate lasers and filters was used. Peptide specific cells were calculated as percentage of total CD8+ cells. Evaluation of multimeric analysis was done using the FlowJo software (Tree Star, Oregon, USA). In vitro priming of specific multimer+ CD8+ lymphocytes was detected by comparing to negative control stimulations.

Substance	Wells positive [%]
1 (KLLDNLHDL; listed as Homo sapiens) [compound 1]	+ (<20% = +)
2 (VLLDIFTGV; listed as Homo sapiens) [compound 2]	+++ (50%-69% = +++)
3 (GLDGATYTV; listed as Homo sapiens) [compound 3]	++++ (> = 70% = ++++)
6 (SLLSELVEA; listed as Homo sapiens) [compound 6]	+ (<20% = +)

Same assay, conditions: in vitro immunogenicity, percentage of positive wells, healthy HLA-A*02 donors (Table 10A)

Substance	wells
56 (LLLEILHEI; listed as Homo sapiens) [compound 56]	+ (<20% = +)
57 (ALADLTGTVV; listed as Homo sapiens) [compound 57]	+ (<20% = +)
58 (GVLENIFGV; listed as Homo sapiens) [compound 58]	+ (<20% = +)
59 (QLLAGVFLA; listed as Homo sapiens) [compound 59]	+ (<20% = +)
62 (SLWGGDVVL; listed as Homo sapiens) [compound 62]	++ (20%-49% = ++)
64 (ALYDSVILL; listed as Homo sapiens) [compound 64]	+ (<20% = +)
69 (VLTEFTREV; listed as Homo sapiens) [compound 69]	+ (<20% = +)

Target: HLA-A*02:01 (Homo sapiens, UniProt P04439, D140Y/D185E/D98H/E176V/E277Q/G131W/G231S/I119V/I121R/I166T/I218V/L300P/L318F/N151K/N90K/P208A/P217A/Q86G/Q94H/R138H/R169H/T345S)
Experiment: MHC binding assay: UV-ligand exchange with β2m ELISA
Conditions: peptide exchange yield, binding to HLA-A*02:01
Excerpt: Candidate peptides for T cell based therapies according to the present invention were further tested for their MHC binding capacity (affinity). The individual peptide-MHC complexes were produced by UV-ligand exchange, where a UV-sensitive peptide is cleaved upon UV-irradiation, and exchanged with the peptide of interest as analyzed. Only peptide candidates that can effectively bind and stabilize the peptide-receptive MHC molecules prevent dissociation of the MHC complexes. To determine the yield of the exchange reaction, an ELISA was performed based on the detection of the light chain (β2m) of stabilized MHC complexes. The assay was performed as generally described in Rodenko et al. (Rodenko et al., 2006).
96 well MAXISorp plates (NUNC) were coated over night with 2 ug/ml streptavidin in PBS at room temperature, washed 4× and blocked for 1 h at 37° C. in 2% BSA containing blocking buffer. Refolded HLA-A*02:01/MLA-001 monomers served as standards, covering the range of 15-500 ng/ml. Peptide-MHC monomers of the UV-exchange reaction were diluted 100 fold in blocking buffer. Samples were incubated for 1 h at 37° C., washed four times, incubated with 2 ug/ml HRP conjugated anti-β2m for 1 h at 37° C., washed again and detected with TMB solution that is stopped with […]. Absorption was measured at 450 nm. Candidate peptides that show a high exchange yield (preferably higher than 50%, most preferred higher than 75%) are generally preferred for a generation and production of antibodies or fragments thereof, and/or T cell receptors or fragments thereof, as they show sufficient avidity to the MHC molecules and prevent dissociation of the MHC complexes.

Peptide exchange	Substance
++++ (> 75% = ++++)	1 (KLLDNLHDL; listed as Homo sapiens) [compound 1]
++++ (> 75% = ++++)	2 (VLLDIFTGV; listed as Homo sapiens) [compound 2]
+++ (>50 = +++)	3 (GLDGATYTV; listed as Homo sapiens) [compound 3]
+++ (>50 = +++)	4 (RLDIQGTGQLL; listed as Homo sapiens) [compound 4]
++++ (> 75% = ++++)	5 (SLFDEVRQI; listed as Homo sapiens) [compound 5]
++++ (> 75% = ++++)	6 (SLLSELVEA; listed as Homo sapiens) [compound 6]
++++ (> 75% = ++++)	8 (SVMELLQGV; listed as Homo sapiens) [compound 8]
++++ (> 75% = ++++)	11 (ALDPIIHGL; listed as Homo sapiens) [compound 11]
++++ (> 75% = ++++)	12 (ALAPSEGVQAA; listed as Homo sapiens) [compound 12]
+++ (>50 = +++)	13 (ALQNKVVAL; listed as Homo sapiens) [compound 13]
++++ (> 75% = ++++)	15 (GLLSVELRV; listed as Homo sapiens) [compound 15]
+++ (>50 = +++)	16 (KLNSSIQYV; listed as Homo sapiens) [compound 16]
+++ (>50 = +++)	17 (KLWEESTAQV; listed as Homo sapiens) [compound 17]
+++ (>50 = +++)	19 (YLETMNITL; listed as Homo sapiens) [compound 19]
+++ (>50 = +++)	21 (VLGPEGQLV; listed as Homo sapiens) [compound 21]
+++ (>50 = +++)	22 (VLVSSVLGV; listed as Homo sapiens) [compound 22]
+++ (>50 = +++)	24 (ILDAQTAFV; listed as Homo sapiens) [compound 24]
++++ (> 75% = ++++)	25 (ILLELFTHV; listed as Homo sapiens) [compound 25]
++++ (> 75% = ++++)	26 (SVLAGVVGV; listed as Homo sapiens) [compound 26]
+++ (>50 = +++)	27 (VLNPETTVV; listed as Homo sapiens) [compound 27]
+++ (>50 = +++)	28 (GLDEAIRKV; listed as Homo sapiens) [compound 28]
+ (>10% = +)	29 (IGIGPVLNI; listed as Homo sapiens) [compound 29]
+++ (>50 = +++)	30 (TLLDRVAVI; listed as Homo sapiens) [compound 30]
+++ (>50 = +++)	31 (ALLTAVTNV; listed as Homo sapiens) [compound 31]

Peptide exchange	Substance
+++ (>50 = +++)	32 (GLIENTYQL; listed as Homo sapiens) [compound 32]
++ (>20% = ++)	33 (SMTTNLDLKV; listed as Homo sapiens) [compound 33]
++++ (> 75% = ++++)	34 (AIAGRLLGV; listed as Homo sapiens) [compound 34]
+++ (>50 = +++)	35 (TLLPTLYEI; listed as Homo sapiens) [compound 35]
+++ (>50 = +++)	36 (SLLSDIIAL; listed as Homo sapiens) [compound 36]
+++ (>50 = +++)	37 (VLLATVTEL; listed as Homo sapiens) [compound 37]
+++ (>50 = +++)	38 (RILDIDIPLSV; listed as Homo sapiens) [compound 38]
+++ (>50 = +++)	39 (ALDGKIYEL; listed as Homo sapiens) [compound 39]
++++ (> 75% = ++++)	40 (GLLGGVIMMV; listed as Homo sapiens) [compound 40]
++++ (> 75% = ++++)	41 (YIDDIFSGV; listed as Homo sapiens) [compound 41]
++++ (> 75% = ++++)	42 (FLSGYYVTL; listed as Homo sapiens) [compound 42]
+++ (>50 = +++)	43 (VIANEIEKV; listed as Homo sapiens) [compound 43]
++++ (> 75% = ++++)	44 (FLNGLEILL; listed as Homo sapiens) [compound 44]
++ (>20% = ++)	45 (VLLHVSVLL; listed as Homo sapiens) [compound 45]
+++ (>50 = +++)	46 (NMDDVIYYV; listed as Homo sapiens) [compound 46]
+++ (>50 = +++)	47 (GLVEQLYDL; listed as Homo sapiens) [compound 47]
+++ (>50 = +++)	48 (ILAETQPEL; listed as Homo sapiens) [compound 48]
++++ (> 75% = ++++)	49 (ALLELLHEL; listed as Homo sapiens) [compound 49]
++++ (> 75% = ++++)	50 (TLSTVIATV; listed as Homo sapiens) [compound 50]
+++ (>50 = +++)	51 (TVPPVFVSV; listed as Homo sapiens) [compound 51]
+++ (>50 = +++)	52 (ALISEKLETL; listed as Homo sapiens) [compound 52]
++++ (> 75% = ++++)	53 (VMHDSSFSV; listed as Homo sapiens) [compound 53]
+++ (>50 = +++)	54 (TLSDVVVGL; listed as Homo sapiens) [compound 54]
